Data from paper PMC4192513 (2014).

Tests used:
Snu17p (residues 1-113) [1] = biological target: T1, Snu17p (residues 1-113) (S. cerevisiae, UniProt P40565 1-113); assay: ITC
T1 chain: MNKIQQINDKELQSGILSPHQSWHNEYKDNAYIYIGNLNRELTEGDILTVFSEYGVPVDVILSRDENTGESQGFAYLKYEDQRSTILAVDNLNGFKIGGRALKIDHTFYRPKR

Snu17p (residues 1-113) [2] = biological target: T1, Snu17p (residues 1-113); assay: ITC; first site (KD1)
Snu17p (residues 1-113) [3] = biological target: T1, Snu17p (residues 1-113); assay: ITC; second site (KD2)

| Kd (Snu17p (residues 1-113) [1]) | Kd (Snu17p (residues 1-113) [2]) | Kd (Snu17p (residues 1-113) [3]) | Binder |
| --- | --- | --- | --- |
| 253 nM |  |  | ENRFAIMPGSRWDGVHRSNGFE [Bud13p peptide (residues 221-242)] |
|  | 6.3 nM | 234 nM | Bud13p (residues 201-266) (domain or fragment) not shown |
| ~60000 nM |  |  | AIMPGSRWDGVHRS [Bud13p peptide (residues 225-238)] |
